These results are taken from patent publication US11673916B2, “Neuroprotective peptides and methods of their use” (University of Pittsburgh—Of the Commonwealth System of …, priority 2020, dated 2023).

The target in the test is T1, Kv2.1 surface clusters (Rattus norvegicus, UniProt P15387).
T1 construct: expressed in transfected cells; host or cells: primary rat cortical neurons (E16-17 Sprague-Dawley), Lipofectamine 2000
T1 sequence (P15387 1-857): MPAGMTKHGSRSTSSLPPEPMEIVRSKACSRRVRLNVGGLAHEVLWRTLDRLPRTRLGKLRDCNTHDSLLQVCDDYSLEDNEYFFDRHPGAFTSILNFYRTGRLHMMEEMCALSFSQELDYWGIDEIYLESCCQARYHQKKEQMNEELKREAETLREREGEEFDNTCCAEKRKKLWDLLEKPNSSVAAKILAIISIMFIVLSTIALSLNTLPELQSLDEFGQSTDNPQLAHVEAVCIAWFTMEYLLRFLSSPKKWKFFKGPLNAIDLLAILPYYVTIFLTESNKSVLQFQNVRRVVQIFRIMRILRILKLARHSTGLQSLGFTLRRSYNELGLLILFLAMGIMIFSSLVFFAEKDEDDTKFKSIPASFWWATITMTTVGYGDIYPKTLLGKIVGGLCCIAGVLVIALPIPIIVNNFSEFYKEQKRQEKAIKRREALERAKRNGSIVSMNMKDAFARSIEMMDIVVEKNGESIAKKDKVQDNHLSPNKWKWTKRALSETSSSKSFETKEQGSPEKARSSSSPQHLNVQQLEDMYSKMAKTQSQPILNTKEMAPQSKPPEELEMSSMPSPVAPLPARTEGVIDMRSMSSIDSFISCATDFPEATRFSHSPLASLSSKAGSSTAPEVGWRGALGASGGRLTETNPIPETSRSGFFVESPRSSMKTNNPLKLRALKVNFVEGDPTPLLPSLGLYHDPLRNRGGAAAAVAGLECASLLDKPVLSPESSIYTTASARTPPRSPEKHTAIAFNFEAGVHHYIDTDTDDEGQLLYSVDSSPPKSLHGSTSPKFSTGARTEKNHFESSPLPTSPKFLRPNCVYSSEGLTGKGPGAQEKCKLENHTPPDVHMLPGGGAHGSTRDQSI
Briefly: Kv2.1 surface cluster density in live Kv2.1-GFP-transfected cortical neurons treated with TAT-linked peptides. The test is classed as cell-based. Particulars: 10 μM, two-hour treatment, mean±SEM (FIG. 12B). On the procedure: In vitro experiments utilized primary cortical neuronal cultures prepared from embryonic day 16-17 Sprague-Dawley rats of either sex in a protocol described previously (McCord et al., J Physiol (Lond). 592: 3511-3521, 2014). Timed-pregnant rats (Charles River Laboratories, Wilmington, Mass.) were sacrificed by CO2 inhalation. Embryonic cortices were dissociated with trypsin (0.6 mg/mL) and cells plated in sterile 6-well plates on poly-L-ornithine-coated glass coverslips at a density of 670,000 cells per well. Cytosine arabinoside (1-2 μM) was utilized to inhibit non-neuronal proliferation on day 14 in vitro (DIV); cultures were utilized at 21-25 DIV.
; Invitrogen, Carlsbad, Calif.). […]
To analyze Kv2.1 distribution in live primary cortical neurons, cells were transfected with both a tdTomato construct and a GFP-tagged Kv2.1 construct (O'Connell, et al., J Neurosci. 26: 9609-9618, 2006) and imaged on a Nikon A1+ confocal microscope (Nikon, Tokyo, Japan). […] For live images of transfected neurons, object count parameters were customized to define a Kv2.1 cluster as an area of high intensity GFP fluorescence (compared to background), measuring 0.05 μm^2 or larger (Schulien et al., J Physiol (Lond). 594: 2647-2659, 2016). Kv2.1 cluster density was calculated by normalizing the number of Kv2.1 clusters counted to the somatic area of each neuron (#Kv2.1 clusters/μm^2). […]

Take “YGRKKRRQRRRAIDAFTA [TAT-DP-2A, TAT-linked serine to alanine mutant of DP-2]”: the “mean Kv2.1 surface cluster density” value is listed as 0.14±0.02 #Kv2.1 clusters/μm^2 of neuronal soma.
Next, “YGRKKRRQRRRDIDDFTD [TAT-DP-2D, TAT-linked peptide containing serine to aspartate mutations]”: 0.08±0.02 #Kv2.1 clusters/μm^2 of neuronal soma.
